Results reported in PMC10414051, “FOXP1-GINS1 axis promotes DLBCL proliferation and directs doxorubicin resistance”.

Target: T1, FOXP1 (recombinant, pET28a) (UniProt Q9H334 1-677)
T1 sequence: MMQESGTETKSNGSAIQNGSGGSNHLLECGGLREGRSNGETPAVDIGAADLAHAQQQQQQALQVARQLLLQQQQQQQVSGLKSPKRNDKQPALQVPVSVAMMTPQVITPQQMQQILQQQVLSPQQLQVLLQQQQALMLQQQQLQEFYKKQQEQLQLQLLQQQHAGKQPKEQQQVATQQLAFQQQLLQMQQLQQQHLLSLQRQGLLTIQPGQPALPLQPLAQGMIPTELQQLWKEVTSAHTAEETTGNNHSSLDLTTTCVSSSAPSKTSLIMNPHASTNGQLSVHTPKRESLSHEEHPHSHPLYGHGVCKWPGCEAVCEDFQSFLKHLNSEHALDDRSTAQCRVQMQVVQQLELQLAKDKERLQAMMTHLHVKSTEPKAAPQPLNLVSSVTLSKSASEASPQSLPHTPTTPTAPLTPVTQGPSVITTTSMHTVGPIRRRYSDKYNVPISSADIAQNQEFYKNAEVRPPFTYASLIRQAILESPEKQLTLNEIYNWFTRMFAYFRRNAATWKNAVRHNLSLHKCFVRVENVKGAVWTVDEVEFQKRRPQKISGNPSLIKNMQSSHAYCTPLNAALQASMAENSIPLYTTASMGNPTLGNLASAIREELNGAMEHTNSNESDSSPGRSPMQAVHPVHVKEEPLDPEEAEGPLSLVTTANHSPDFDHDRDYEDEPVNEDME
Assay: EMSA; Nondenaturing PAGE EMSA, HRP-streptavidin detection; buffer, salt, pH and temperature not stated
Details: protein: recombinant; tags: His tag (implied by pET28a and Ni-NTA); chain copies: 2; blunt

| Binder | binding result |
| --- | --- |
| Probe B (GINS1 promoter FOXP1 site B) (dsDNA) DNA 1: AGCTCAAGAGTTGTCGACCAGACTG DNA 2: CAGTCTGGTCGACAACTCTTGAGCT | binds |
| Probe A (GINS1 promoter FOXP1 site A) (dsDNA) DNA 1: TCAAAAAGGCAATGTTTGCTGGGTG DNA 2: CACCCAGCAAACATTGCCTTTTTGA | binds |
